# Target: T1, human plasma fibronectin (human, UniProt P02751 32-2296)
# T1 construct: Bought (Sigma); used in solution for ligand blots, coated on microtitre wells, or coupled to Sepharose; also called Fn; human Fn
# Experiment: ELISA, recombinant protein titrated on immobilized human Fn (100 ng/well), detected with antiserum
# T1 sequence (P02751 other isoform, or with tags, fused parts or gaps limits assumed): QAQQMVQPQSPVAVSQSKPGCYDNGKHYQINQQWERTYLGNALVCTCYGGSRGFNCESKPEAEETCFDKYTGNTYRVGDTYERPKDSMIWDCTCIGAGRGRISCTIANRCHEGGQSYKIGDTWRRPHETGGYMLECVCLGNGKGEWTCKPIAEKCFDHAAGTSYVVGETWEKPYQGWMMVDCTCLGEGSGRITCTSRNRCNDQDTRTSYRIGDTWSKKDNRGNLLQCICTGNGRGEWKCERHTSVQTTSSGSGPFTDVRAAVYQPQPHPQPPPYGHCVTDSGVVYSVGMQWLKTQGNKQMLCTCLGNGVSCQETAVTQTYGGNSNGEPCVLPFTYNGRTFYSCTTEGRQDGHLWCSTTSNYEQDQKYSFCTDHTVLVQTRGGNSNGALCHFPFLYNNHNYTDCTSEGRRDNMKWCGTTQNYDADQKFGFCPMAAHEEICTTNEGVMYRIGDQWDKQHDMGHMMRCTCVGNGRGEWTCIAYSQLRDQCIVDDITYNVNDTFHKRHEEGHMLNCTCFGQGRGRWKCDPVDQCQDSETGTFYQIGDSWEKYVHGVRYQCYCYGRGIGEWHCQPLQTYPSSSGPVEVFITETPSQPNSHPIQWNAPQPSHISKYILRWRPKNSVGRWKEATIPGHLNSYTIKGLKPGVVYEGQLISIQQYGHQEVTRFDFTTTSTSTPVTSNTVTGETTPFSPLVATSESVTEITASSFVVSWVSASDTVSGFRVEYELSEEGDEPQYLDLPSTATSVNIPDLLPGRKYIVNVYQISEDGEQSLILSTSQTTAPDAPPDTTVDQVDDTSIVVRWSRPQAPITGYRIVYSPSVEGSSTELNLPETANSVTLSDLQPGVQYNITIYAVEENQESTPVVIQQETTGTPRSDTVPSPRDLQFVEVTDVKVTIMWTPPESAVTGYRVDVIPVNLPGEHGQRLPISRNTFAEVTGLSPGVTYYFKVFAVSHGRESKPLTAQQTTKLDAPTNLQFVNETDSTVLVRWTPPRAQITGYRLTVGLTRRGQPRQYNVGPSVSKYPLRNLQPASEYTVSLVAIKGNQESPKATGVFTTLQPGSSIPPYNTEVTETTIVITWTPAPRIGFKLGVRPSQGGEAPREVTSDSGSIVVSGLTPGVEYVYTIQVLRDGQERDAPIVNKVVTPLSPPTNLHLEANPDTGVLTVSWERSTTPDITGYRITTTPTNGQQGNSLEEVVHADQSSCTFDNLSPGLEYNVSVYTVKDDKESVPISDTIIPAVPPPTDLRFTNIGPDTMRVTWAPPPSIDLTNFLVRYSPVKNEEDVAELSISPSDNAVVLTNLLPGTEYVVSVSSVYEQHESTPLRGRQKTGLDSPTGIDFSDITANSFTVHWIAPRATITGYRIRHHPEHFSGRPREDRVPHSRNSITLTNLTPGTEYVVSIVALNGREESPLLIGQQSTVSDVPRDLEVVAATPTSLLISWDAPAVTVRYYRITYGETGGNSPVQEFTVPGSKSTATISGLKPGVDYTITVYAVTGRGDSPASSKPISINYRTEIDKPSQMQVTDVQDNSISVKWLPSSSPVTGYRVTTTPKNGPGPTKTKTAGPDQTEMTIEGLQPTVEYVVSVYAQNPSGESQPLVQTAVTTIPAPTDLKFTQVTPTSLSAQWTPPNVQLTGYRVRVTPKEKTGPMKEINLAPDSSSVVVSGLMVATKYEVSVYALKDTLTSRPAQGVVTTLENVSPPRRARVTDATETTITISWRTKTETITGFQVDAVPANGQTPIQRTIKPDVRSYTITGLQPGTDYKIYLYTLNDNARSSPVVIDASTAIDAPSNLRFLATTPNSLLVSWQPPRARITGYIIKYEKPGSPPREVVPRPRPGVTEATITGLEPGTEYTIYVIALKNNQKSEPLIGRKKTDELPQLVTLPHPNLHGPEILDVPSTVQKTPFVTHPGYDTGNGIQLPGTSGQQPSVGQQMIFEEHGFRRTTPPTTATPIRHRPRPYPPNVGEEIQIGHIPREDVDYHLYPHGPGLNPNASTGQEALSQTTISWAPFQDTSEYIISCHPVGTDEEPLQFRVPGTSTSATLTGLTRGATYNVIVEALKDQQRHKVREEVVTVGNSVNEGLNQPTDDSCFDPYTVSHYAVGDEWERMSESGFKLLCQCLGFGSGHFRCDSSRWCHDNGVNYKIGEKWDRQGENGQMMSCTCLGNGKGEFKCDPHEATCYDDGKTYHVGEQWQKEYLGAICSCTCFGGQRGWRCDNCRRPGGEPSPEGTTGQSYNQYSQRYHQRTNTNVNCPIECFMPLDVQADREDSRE
binder,measurement,value
"recombinant NPDH (His10-NPDH-B), amino acids 1-244 of Mycoplasma pneumoniae pyruvate dehydrogenase E1 beta subunit (other) MSKTIQANNIEALGNAMDLALERDPNVVLYGQDAGFEGGVFRATKGLQKKYGEERVWDCPIAEAAMAGIGVGAAIGGLKPIVEIQFSGFSFPAMFQIFTHAARIRNRSRGVYTCPIIVRMPMGGGIKALEHHSETLEAIYGQIAGLKTVMPSNPYDTKGLFLAAVESPDPVVFFEPKKLYRAFRQEIPADYYTVPIGQANLISQGNNLTIVSYGPTMFDLINMVYGGELKDKGIELIDLRTISP",Kd,0.075 µg/mL

# From patent publication US20040241689A1 (published 2004)
